Test results published in publication PMC3617137 (2013).

Molecular target: T1, microtubules (alpha/beta-tubulin) (Sus scrofa, UniProt P02550)
T1 chain 1: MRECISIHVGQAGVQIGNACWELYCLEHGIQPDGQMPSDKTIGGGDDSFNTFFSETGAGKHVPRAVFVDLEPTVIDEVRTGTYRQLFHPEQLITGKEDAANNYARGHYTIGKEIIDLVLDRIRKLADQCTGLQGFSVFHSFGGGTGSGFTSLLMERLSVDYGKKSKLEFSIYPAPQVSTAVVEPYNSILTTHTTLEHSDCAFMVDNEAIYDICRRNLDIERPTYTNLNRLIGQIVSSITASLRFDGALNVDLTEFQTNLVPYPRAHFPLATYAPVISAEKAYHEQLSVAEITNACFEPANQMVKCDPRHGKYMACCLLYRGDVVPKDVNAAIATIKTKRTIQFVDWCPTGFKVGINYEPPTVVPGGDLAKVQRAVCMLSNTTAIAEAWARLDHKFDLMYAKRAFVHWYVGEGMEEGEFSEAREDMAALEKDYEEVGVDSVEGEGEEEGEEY
T1 chain 2: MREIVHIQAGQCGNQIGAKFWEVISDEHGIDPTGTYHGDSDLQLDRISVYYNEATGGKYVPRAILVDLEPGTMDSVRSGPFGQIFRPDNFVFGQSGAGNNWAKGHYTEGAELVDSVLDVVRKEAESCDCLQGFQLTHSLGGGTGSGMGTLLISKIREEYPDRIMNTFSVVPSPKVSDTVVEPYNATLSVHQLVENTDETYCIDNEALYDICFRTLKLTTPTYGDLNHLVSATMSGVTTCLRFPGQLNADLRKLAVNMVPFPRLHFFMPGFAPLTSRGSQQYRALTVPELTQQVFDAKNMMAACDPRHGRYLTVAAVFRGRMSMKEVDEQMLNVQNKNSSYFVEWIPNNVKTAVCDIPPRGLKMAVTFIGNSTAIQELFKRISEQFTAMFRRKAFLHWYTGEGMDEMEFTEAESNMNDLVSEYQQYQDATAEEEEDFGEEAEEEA
Assay: microtubule co-sedimentation

B1: Mars (MBP-N-Mars) 1-430 (protein)
chain: MQRHKELYKEQSLVLSPRNHCQENRDRLQAARAKKREDCFYQNRIISVSPTPVKIKQLAAAQAALTQENVAPKLESPERLDTKPAELLKESNPKVSRQKLYLQRYMEWKIAKTKEHKQQDQKRRGAAINVPTVKQSKALPKSQTFRVPDNLASAKQKEAAPMFQPPKRCSLYMIANPTGKGKAAEPIKPSIPKPTSAAAPPSSNTVAASSALARHKSAASATKIVPAIRQNNNPVALARQKAAARPIPNTTKQTTSVRQPGIEAKKITTTIPRPTPATVTKAKTPGIRQQPPVVSTKPRLPEPPAPRTARLPNVLSKPFEKPLGNKAPVTRRANVVKPQPIRGGGGAAAKFKDTAGATSKAASHSIRMKATKIKSQYTRLQDNVRKLPQLKAELLHAATLDIPPLTPLDDIHNPFIDQATSTQCKSNNSS
modifications: MBP fusion, taxol-stabilized GMPPNP/GDP-NP microtubules
- Kd: 250 nM
